Experimental data as given in patent publication US20250136682A1 (ACADEMIA SINICA, published 2025).
Positions count from the first letter of the chain named.

What was measured:
[1] = molecular target: T1, human Siglec-3 (CD33) on cells (human, UniProt P20138 18-364); experiment: flow cytometry, APC-conjugated antibody titrated on human monocytes (endogenous Siglec-3)
T1 construct: whole, on cells; also called human endogenous or exogenous Siglec-3
Description: (§1) For establishment of titration curves, human monocytes and moDCs (3×10⁴) were incubated with the indicated concentrations of the APC-conjugated anti-Siglec-3 antibodies 4H3-3A, 10C8, as well as hIgG1 control, and analyzed by a flow cytometry instrument (FACSVerse; BD Biosciences). Mean fluorescence intensity (MFI) was analyzed by a software FlowJo (TreeStar, Inc.).

[2] = molecular target: T1, human Siglec-3 (CD33) on cells; experiment: flow cytometry on moDCs (data not shown)
[3] = molecular target: T1, human Siglec-3 (CD33) on cells; experiment: flow cytometry, APC-conjugated antibody titrated on human monocyte-derived dendritic cells (endogenous Siglec-3)
Description: as §1

[4] = molecular target: T2, mouse Siglec-3 expressed in HEK-293T cells (mouse, UniProt Q63994 17-403); experiment: flow cytometry, antibody titrated on HEK-293T cells expressing exogenous mouse Siglec-3
T2 construct: whole, on cells
T2 sequence (looked up): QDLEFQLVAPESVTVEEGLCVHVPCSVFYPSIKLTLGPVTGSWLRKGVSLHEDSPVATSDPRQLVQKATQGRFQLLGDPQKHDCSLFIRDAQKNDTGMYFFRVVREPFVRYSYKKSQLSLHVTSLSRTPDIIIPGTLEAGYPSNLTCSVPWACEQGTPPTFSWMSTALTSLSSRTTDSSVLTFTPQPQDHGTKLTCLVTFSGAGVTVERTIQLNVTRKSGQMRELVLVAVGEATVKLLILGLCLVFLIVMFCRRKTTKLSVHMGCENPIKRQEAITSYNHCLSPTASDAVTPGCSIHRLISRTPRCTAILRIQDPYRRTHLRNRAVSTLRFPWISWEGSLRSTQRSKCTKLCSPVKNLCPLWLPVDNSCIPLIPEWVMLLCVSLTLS

[5] = molecular target: T3, human CD33.Fc (recombinant extracellular domain of human Siglec-3 fused with Fc portion of hIgG1) (human, UniProt P20138 18-259); experiment: SPR (BIAcore 2000), human CD33.Fc immobilized on CM5 chip
T3 construct: extracellular domain; also called Siglec-3.Fc; not shown: Fc portion of human IgG1
Description: Human IgG1 was first mobilized on channel one of a CM5 chip as the blank to determine the bulk effect of injection itself, whereas human CD33.Fc were immobilized on channel two for analysis of its kinetic interaction with wild various clones of anti-CD33 mAbs, respectively. The interaction between […] and anti-CD33 mAbs was determined by surface plasmon resonance using a Biacore instrument (BIAcore 2000).

T1 sequence (P20138 18-364): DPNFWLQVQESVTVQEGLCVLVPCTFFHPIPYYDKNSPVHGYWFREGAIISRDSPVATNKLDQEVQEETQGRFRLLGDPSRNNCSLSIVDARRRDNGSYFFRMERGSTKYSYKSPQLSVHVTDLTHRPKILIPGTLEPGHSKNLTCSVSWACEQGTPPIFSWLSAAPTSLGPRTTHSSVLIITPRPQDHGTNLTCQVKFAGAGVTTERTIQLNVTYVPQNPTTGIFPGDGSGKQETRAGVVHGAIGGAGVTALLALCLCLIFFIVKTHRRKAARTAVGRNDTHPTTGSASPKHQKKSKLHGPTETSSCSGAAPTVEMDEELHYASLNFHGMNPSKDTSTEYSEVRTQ
T3 sequence (P20138 18-259): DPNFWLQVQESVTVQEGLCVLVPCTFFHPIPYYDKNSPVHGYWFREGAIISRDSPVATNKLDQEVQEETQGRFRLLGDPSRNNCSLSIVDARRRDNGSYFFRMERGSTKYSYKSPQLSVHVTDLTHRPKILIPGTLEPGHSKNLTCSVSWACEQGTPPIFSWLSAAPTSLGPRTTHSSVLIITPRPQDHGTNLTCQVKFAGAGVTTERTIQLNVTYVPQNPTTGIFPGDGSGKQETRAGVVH

B1: anti-Siglec-3 antibody 10C8 (antibody, V domains shown)
VH: EVQLVESGGGLVQPGGSLRLSCAASGFTINNGWIHWVRQAPGKGLEWVAGIGPYGGSTFYADSVKGRFTISADTSKNTAYLQMNSLRAEDTAVYYCSRFIGSYSHMDYWGQGTLVTVSS
VL: DIQMTQSPSSLSASVGDRVTITCRASQDVYYYVAWYQQKPGKAPKLLISSAGGLYSGVPSRFSGSGSGTDFTLTISSLQPEDFATYYCQQYFNFPLTFGQGTKVEIKR
EC50 (read off the curve) [1]: ~200 nM

B2: anti-Siglec-3 antibody S3H1-85 reformatted into human IgG1 or IgG4 (antibody, V domains shown)
VH: VQLVESGGGLVQPGGSLRLSCAASGFTIGSGWIHWVRQAPGKGLEWVAGIGPYGGYTYYADSVKGRFTISADTSKNTAYLQMNSLRAEDTAVYYCARFNDHWDLWMDYWGQGTLVTVSS
VL: B1 VL with Y31G, S50Y, A51T, G52P, F92Y, N93D, L96I
notes: also called 1S3H1-85; 4S3H1-85
binding result [2]: binds

B3: anti-Siglec-3 antibody H3-9E reformatted into human IgG1 or IgG4 (antibody, V domains shown)
VH: B2 VH with G29D, S30D, W32F, N99G, D100H, H101P, W102P, D103Y, L104D, W105Y
VL: B1 VL with Y31G, S50Y, A51T, G52P, F92Y, N93D, L96I
notes: also called 1H3-9E; 4H3-9E
binding result [2]: binds

B4: anti-Siglec-3 antibody S3H1-76 reformatted into human IgG1 or IgG4 (antibody, V domains shown)
VH: B2 VH with G29S, G31S, W32Y
VL: B1 VL with Y31G, S50Y, A51T, G52P, F92Y, N93D, L96I
notes: also called 1S3H1-76; 4S3H1-76
binding result [2]: binds

B5: anti-Siglec-3 antibody S3H2-10 reformatted into human IgG1 or IgG4 (antibody, V domains shown)
VH: B2 VH with G29D, S30D, W32F, G49A, G51P, Y53L, G54Q, Y56K
VL: B1 VL with Y31G, S50Y, A51T, G52P, F92Y, N93D, L96I
notes: also called 1S3H2-10; 4S3H2-10
binding result [2]: binds

B6: anti-Siglec-3 antibody S3PL3-46 reformatted into human IgG1 or IgG4 (antibody, V domains shown)
VH: B2 VH with G29D, S30D, W32F
VL: B1 VL with Y31G, S50Y, A51T, G52P, F92S, N93R, F94M, L96I
notes: also called 1S3PL3-46; 4S3PL3-46
binding result [2]: binds

B7: anti-Siglec-3 antibody H3-7G reformatted into human IgG1 or IgG4 (antibody, V domains shown)
VH: B2 VH with G29D, S30D, W32F, N99R, H101D, W102K, D103P, L104Q, W105M
VL: B1 VL with Y31G, S50Y, A51T, G52P, F92Y, N93D, L96I
notes: also called 1H3-7G; 4H3-7G
binding result [2]: binds

B8: anti-Siglec-3 antibody H3-10F reformatted into human IgG1 or IgG4 (antibody, V domains shown)
VH: B2 VH with G29D, S30D, W32F, N99A, D100T, W102D, D103Q, L104P, W105L
VL: B1 VL with Y31G, S50Y, A51T, G52P, F92Y, N93D, L96I
notes: also called 1H3-10F; 4H3-10F
binding result [2]: binds

B9: anti-Siglec-3 antibody S3H1-29 reformatted into human IgG1 or IgG4 (antibody, V domains shown)
VH: B2 VH with G29H, S30G, G31S, W102Q
VL: B1 VL with Y31G, S50Y, A51T, G52P, F92Y, N93D, L96I
notes: also called 1S3H1-29; 4S3H1-29
binding result [2]: binds

B10: anti-Siglec-3 antibody S3H2-12 reformatted into human IgG1 or IgG4 (antibody, V domains shown)
VH: B2 VH with G29D, S30D, W32F, G49T, G51S, Y53N, G54T, Y56H, Y58N
VL: B1 VL with Y31G, S50Y, A51T, G52P, F92Y, N93D, L96I
notes: also called 1S3H2-12; 4S3H2-12
binding result [2]: binds

B11: anti-Siglec-3 antibody H3-10E reformatted into human IgG1 or IgG4 (antibody, V domains shown)
VH: B2 VH with G29D, S30D, W32F, N99Q, D100N, H101S, W102P, D103T, L104K, W105T
VL: B1 VL with Y31G, S50Y, A51T, G52P, F92Y, N93D, L96I
notes: also called 1H3-10E; 4H3-10E
binding result [2]: binds

B12: anti-Siglec-3 antibody S3H2-8 reformatted into human IgG1 or IgG4 (antibody, V domains shown)
VH: B2 VH with G29D, S30D, W32F, G49A, G51K, Y53R, G54Q, Y56D, Y58S
VL: B1 VL with Y31G, S50Y, A51T, G52P, F92Y, N93D, L96I
notes: also called 1S3H2-8; 4S3H2-8
binding result [2]: binds

B13: anti-Siglec-3 antibody S3H1-74 reformatted into human IgG1 or IgG4 (antibody, V domains shown)
VH: B2 VH with G29H, S30G, G31S
VL: B1 VL with Y31G, S50Y, A51T, G52P, F92Y, N93D, L96I
notes: also called 1S3H1-74; 4S3H1-74
binding result [2]: binds

B14: anti-Siglec-3 antibody H3-8F reformatted into human IgG1 or IgG4 (antibody, V domains shown)
VH: B2 VH with G29D, S30D, W32F, N99R, H101T, W102Q, D103S, L104Q, W105T
VL: B1 VL with Y31G, S50Y, A51T, G52P, F92Y, N93D, L96I
notes: also called 1H3-8F; 4H3-8F
binding result [2]: binds

B15: 1H3-3A (antibody, human IgG1, kappa)
light chain: DGTDIQMTQSPSSLSASVGDRVTITCRASQDVYGYVAWYQQKPGKAPKLLISYTPGLYSGVPSRFSGSGSGTDFTLTISSLQPEDFATYYCQQYYDFPITFGQGTKVEIKRTVAAPSVFIFPPSDEQLKSGTASVVCLLNNFYPREAKVQWKVDNALQSGNSQESVTEQDSKDSTYSLSSTLTLSKADYEKHKVYACEVTHQGLSSPVTKSFNRGEC
heavy chain: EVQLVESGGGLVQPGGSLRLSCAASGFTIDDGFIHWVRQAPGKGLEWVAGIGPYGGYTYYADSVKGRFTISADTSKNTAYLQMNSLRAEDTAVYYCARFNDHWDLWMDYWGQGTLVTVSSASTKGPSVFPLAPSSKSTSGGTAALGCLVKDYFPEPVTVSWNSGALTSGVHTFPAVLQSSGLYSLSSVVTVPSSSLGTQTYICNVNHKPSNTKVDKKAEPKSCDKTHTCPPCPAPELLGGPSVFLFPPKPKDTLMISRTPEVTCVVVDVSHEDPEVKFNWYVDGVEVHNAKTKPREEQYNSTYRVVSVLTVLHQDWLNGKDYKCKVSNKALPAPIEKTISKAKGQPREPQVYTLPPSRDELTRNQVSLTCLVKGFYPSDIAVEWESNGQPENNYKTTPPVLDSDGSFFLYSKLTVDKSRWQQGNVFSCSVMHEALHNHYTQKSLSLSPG
EC50 (read off the curve) [1]: ~100 nM
EC50 (read off the curve) [3]: ~30 nM

B16: anti-Siglec-3 antibody 4H3-3A (scFv clone H3-3A reformatted into hIgG4) (antibody)
heavy: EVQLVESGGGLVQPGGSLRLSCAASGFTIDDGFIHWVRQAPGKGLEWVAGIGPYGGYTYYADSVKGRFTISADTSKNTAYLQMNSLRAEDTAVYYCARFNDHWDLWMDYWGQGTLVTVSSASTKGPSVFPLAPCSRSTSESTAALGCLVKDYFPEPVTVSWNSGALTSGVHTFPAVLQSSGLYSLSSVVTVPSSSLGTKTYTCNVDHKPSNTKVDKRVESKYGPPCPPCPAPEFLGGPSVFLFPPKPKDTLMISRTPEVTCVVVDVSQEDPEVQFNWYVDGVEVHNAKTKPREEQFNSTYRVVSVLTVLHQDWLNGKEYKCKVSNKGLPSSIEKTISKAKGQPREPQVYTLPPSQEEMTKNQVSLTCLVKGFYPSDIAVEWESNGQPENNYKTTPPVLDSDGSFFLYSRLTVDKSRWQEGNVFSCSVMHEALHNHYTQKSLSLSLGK
light: B15 light chain
notes: Human IgG4 format
binding result [4]: no binding
Kd [5]: 8.88 nM
koff [5]: 0.0373 s⁻¹
kon [5]: 4.21e+06 M⁻¹ s⁻¹
